# From IntAct's records for PubMed 31015422
# B1: Tumor necrosis factor alpha-induced protein 3 (Homo sapiens), P21580 (parent)
# chain: MAEQVLPQALYLSNMRKAVKIRERTPEDIFKPTNGIIHHFKTMHRYTLEMFRTCQFCPQFREIIHKALIDRNIQATLESQKKLNWCREVRKLVALKTNGDGNCLMHATSQYMWGVQDTDLVLRKALFSTLKETDTRNFKFRWQLESLKSQEFVETGLCYDTRNWNDEWDNLIKMASTDTPMARSGLQYNSLEEIHIFVLCNILRRPIIVISDKMLRSLESGSNFAPLKVGGIYLPLHWPAQECYRYPIVLGYDSHHFVPLVTLKDSGPEIRAVPLVNRDRGRFEDLKVHFLTDPENEMKEKLLKEYLMVIEIPVQGWDHGTTHLINAAKLDEANLPKEINLVDDYFELVQHEYKKWQENSEQGRREGHAQNPMEPSVPQLSLMDVKCETPNCPFFMSVNTQPLCHECSERRQKNQNKLPKLNSKPGPEGLPGMALGASRGEAYEPLAWNPEESTGGPHSAPPTAPSPFLFSETTAMKCRSPGCPFTLNVQHNGFCERCHNARQLHASHAPDHTRHLDPGKCQACLQDVTRTFNGICSTCFKRTTAEASSSLSTSLPPSCHQRSKSDPSRLVRSPSPHSCHRAGNDAPAGCLSQAARTPGDRTGTSKCRKAGCVYFGTPENKGFCTLCFIEYRENKHFAAASGKVSPTASRFQNTIPCLGRECGTLGSTMFEGYCQKCFIEAQNQRFHEAKRTEEQLRSSQRRDVPRTTQSTSRPKCARASCKNILACRSEELCMECQHPNQRMGPGAHRGEPAPEDPPKQRCRAPACDHFGNAKCNGYCNECFQFKQMYG
# Variants of: B1
# Settings: with ATG16L1, Q676U5-1
# Sequence of ATG16L1, Q676U5-1 (Q676U5 whole entry): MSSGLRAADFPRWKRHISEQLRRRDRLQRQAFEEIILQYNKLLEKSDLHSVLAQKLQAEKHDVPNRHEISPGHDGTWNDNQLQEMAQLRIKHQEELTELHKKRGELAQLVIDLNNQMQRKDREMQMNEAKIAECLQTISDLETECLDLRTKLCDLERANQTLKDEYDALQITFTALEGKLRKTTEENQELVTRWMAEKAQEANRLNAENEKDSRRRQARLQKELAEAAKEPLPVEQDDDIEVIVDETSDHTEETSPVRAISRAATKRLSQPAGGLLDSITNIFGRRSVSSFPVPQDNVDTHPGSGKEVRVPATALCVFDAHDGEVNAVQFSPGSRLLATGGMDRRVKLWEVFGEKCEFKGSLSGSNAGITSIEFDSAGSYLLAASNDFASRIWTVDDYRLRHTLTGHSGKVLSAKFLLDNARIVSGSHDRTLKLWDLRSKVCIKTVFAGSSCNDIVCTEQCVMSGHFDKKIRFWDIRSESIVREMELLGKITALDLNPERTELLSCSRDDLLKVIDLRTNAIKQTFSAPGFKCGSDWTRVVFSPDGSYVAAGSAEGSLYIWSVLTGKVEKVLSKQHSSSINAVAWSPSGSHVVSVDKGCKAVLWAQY
row,effect of a mutation on the interaction,Variant
1,with no effect,F224A;L227A
2,with no effect,F257A;L260A
3,with no effect,F127C
4,with no effect,Y188A;L191A
5,with no effect,Y233A;L236A
6,with no effect,W168A;L171A
7,with no effect,Y246A;V249A
8,with no effect,F127A;L130A
9,with no effect,A125V
